# T1: human IL-36R on cells (human, UniProt Q9HB29 20-575)
# T1 sequence (looked up): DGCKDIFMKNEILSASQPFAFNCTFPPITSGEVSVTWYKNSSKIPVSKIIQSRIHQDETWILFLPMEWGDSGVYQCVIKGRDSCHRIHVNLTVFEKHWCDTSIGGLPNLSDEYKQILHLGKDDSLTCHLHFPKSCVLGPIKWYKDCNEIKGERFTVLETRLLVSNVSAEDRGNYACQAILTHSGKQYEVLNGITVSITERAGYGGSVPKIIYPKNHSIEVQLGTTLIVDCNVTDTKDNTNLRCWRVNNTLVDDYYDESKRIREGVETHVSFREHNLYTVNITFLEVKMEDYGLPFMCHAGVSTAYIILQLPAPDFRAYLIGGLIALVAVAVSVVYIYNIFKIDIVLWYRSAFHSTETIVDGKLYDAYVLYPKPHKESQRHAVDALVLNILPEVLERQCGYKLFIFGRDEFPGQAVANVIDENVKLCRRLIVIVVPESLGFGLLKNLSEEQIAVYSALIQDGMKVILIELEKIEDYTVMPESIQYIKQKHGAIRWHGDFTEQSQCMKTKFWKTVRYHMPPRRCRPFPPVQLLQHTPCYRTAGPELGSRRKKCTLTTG
# T2: recombinant human IL-36R (ECD) (human, UniProt Q9HB29 20-332)
# T2 construct: range 20-332; also called IL-1RL2; IL-1Rrp2
# T2 sequence (looked up): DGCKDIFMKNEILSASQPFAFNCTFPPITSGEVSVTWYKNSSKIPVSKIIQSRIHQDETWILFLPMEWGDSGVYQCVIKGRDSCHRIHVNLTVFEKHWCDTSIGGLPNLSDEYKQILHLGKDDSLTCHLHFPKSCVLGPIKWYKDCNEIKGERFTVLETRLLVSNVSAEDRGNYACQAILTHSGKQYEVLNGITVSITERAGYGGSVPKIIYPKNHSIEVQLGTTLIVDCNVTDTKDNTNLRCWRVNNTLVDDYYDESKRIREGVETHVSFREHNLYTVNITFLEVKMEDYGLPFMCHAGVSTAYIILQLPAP
# T3: mouse IL-36R (mouse, UniProt Q9ERS7 22-338)
# T3 sequence (looked up): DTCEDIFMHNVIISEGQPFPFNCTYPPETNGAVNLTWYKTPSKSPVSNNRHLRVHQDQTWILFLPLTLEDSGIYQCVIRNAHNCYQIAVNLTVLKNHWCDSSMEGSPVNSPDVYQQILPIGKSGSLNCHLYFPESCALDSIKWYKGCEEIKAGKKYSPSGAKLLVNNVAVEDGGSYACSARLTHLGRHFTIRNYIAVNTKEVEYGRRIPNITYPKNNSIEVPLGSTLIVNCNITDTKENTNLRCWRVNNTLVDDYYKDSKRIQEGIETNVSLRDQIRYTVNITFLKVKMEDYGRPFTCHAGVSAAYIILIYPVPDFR
# T4: human IL-1R1 (human, UniProt P14778 18-336, limits assumed)
# T4 construct: also called IL-1RI
# T4 sequence (looked up): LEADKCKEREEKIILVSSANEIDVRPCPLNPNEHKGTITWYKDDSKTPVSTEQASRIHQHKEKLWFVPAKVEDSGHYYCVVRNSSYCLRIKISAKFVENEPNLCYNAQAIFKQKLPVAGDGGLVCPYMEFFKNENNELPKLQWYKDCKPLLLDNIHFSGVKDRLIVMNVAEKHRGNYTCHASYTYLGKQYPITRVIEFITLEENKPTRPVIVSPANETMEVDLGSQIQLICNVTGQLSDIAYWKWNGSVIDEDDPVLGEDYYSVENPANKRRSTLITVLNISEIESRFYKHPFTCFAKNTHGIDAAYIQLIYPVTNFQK
# B1: antibody 73F6 (antibody, V domains shown)
# VH: QVQLKESGPGLVAPSQSLSITCTVSGFSLTNYAVHWVRQFPGKGLEWLGVIWSDGSTDYNAPFKSRLSINKDNSKSQVFFKMNSLQTDDTAIYYCARKGGYSGSWFAYWGQGTLVTVSA
# VL: DIVMTQSQKFLSTSVGVRVSVTCKASQDVGTNVLWYQQKIGQSPKALIYSASYRHSGVPDRFTGSGSGTDFTLIITNVQSEDLAEYFCQQYSRYPLTFGPGTKLELK
# notes: Mouse monoclonal from hybridoma; also called 73F6F8; Mouse 73F6
# B2: antibody 78C8 (antibody, V domains shown)
# VH: QVQLKESGPVLVAPSQSLSITCTVSGFSLTKFGVHWIRQTPGKGLEWLGVIWAGGPTNYNSALMSRLTISKDISQSQVFLRIDSLQTDDTAMYYCAKQIYYSTLVDYWGQGTSVTVSS
# VL: DVLLTQTPLSLPVSLGDQASISCRSSQNIVHSNGNTYLQWYLQKPGQSPKLLIYKVSNRFSGVPDRFSGSGSGTDFTLKISRVEAEDLGVYYCFQGSHVPFTFGAGTKLELK
# notes: Mouse monoclonal from hybridoma; also called 78C8D1; Mouse 78C8
# B3: antibody 81B4 (antibody, V domains shown)
# VH: QVQLQQPGADFVRPGASMRLSCKASGYSFTSSWIHWVKQRPGQGLEWIGEINPGNVRTNYNENFRNKATLTVDKSSTTAYMQLRSLTSADSAVYYCTVVFYGEPYFPYWGQGTLVTVSA
# VL: QIVLTQSPAIMSASLGERVTMTCTASSSVSSSYFHWYQQKPGSSPKLWIYRTSNLASGVPGRFSGSGSGTSYSLTISSMEAEDAATYYCHQFHRSPLTFGAGTKLELK
# notes: Mouse monoclonal from hybridoma; also called 81B4E11; Mouse 81B4
# Molecular target: T1, human IL-36R on cells
# Experiment: cell-based or functional assay
"IC90, GM-CSF release, NCI/ADR-RES cells, trun-IL-36a","IC90, GM-CSF release, NCI/ADR-RES cells, trun-IL-36b","IC90, GM-CSF release, NCI/ADR-RES cells, trun-IL-36g","IC90, IL-6 release, NCI/ADR-RES cells, trun-IL-36a","IC90, IL-6 release, NCI/ADR-RES cells, trun-IL-36b","IC90, IL-6 release, NCI/ADR-RES cells, trun-IL-36g","IC90, IL-8 release, NCI/ADR-RES cells, trun-IL-36a","IC90, IL-8 release, NCI/ADR-RES cells, trun-IL-36b","IC90, IL-8 release, NCI/ADR-RES cells, trun-IL-36g","IC90, pNFκB, NCI/ADR-RES cells, trun-IL-36a",Binder
5.9 nM,1.7 nM,1.4 nM,19 nM,5.1 nM,2.2 nM,3.2 nM,0.8 nM,0.9 nM,2.8 nM,B1
7.1 nM,2 nM,1.7 nM,14 nM,5.8 nM,1.3 nM,4.7 nM,1.1 nM,1.4 nM,5.8 nM,B2
0.8 nM,0.3 nM,0.4 nM,0.8 nM,0.3 nM,0.2 nM,0.7 nM,0.2 nM,0.3 nM,1.7 nM,B3

# Same assay, conditions: not given
"IC90, pNFκB, NCI/ADR-RES cells, trun-IL-36b","IC90, pNFκB, NCI/ADR-RES cells, trun-IL-36g",Binder
3 nM,1.5 nM,B1
6.8 nM,4.6 nM,B2
1.4 nM,1.2 nM,B3

# Molecular target: cynomolgus IL-36R on BaF/3 cells (cynomolgus, UniProt A0A2K5WSK9 20-558)
# Experiment: cell-based or functional assay
# Chain of cynomolgus IL-36R on BaF/3 cells (A0A2K5WSK9 entry or part of it): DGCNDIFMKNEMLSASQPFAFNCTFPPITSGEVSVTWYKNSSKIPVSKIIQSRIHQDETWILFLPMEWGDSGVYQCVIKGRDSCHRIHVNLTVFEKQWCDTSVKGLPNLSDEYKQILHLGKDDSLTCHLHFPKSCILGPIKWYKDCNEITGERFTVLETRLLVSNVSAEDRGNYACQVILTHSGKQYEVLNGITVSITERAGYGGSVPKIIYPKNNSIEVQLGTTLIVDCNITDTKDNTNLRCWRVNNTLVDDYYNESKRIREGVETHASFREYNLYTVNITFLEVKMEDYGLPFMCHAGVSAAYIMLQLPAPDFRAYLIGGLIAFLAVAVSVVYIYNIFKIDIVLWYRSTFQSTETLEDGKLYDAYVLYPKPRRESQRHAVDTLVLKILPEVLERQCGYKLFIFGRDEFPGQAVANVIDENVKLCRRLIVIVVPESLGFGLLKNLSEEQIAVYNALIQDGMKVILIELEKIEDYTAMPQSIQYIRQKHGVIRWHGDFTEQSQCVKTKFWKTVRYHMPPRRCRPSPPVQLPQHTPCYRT
"IC90, pNFκB, BaF/3 cynomolgus IL-36R cells, trun-IL-36a","IC90, pNFκB, BaF/3 cynomolgus IL-36R cells, trun-IL-36b","IC90, pNFκB, BaF/3 cynomolgus IL-36R cells, trun-IL-36g",Binder
0.5 nM,0.7 nM,0.8 nM,B1
1 nM,2.1 nM,1.5 nM,B2
2.4 nM,3.5 nM,5.1 nM,B3

# Molecular target: T1, human IL-36R on cells
# Experiment: cell-based or functional assay
# Remark: another data set of the same source
"IC90, IL-8 release, human primary keratinocytes (NHK), trun-IL-36a","IC90, IL-8 release, human primary keratinocytes (NHK), trun-IL-36b","IC90, IL-8 release, human primary keratinocytes (NHK), trun-IL-36g","IC90, pNFκB, human primary keratinocytes (NHK), trun-IL-36a","IC90, pNFκB, human primary keratinocytes (NHK), trun-IL-36b","IC90, pNFκB, human primary keratinocytes (NHK), trun-IL-36g",Binder
17.8 nM,26 nM,2.1 nM,8.2 nM,5.2 nM,1.3 nM,B1
19.3 nM,34 nM,3.6 nM,11.6 nM,14.2 nM,10.6 nM,B2
0.7 nM,1.2 nM,0.5 nM,1.3 nM,1.1 nM,0.5 nM,B3

# Molecular target: T2, recombinant human IL-36R (ECD)
# Experiment: SPR (ProteOn), single IL-36R surface coat concentration
# Experimental: A) Kinetics and binding affinities of anti-IL-36R antibodies binding to recombinant human IL-36R were measured using the Proteon (Bio-Rad, Hercules, Calif.) using material generated from hybridoma following single column purification. […] Binding of the chimeric anti-IL36R IgGs is equivalent to the respective mouse leads.
row,Kd,Binder
1,< 0.1 nM,B1
2,< 0.1 nM,B2
3,< 0.1 nM,B3

# Molecular target: T3, mouse IL-36R
# Experiment: BLI (Fortebio Octet), antibody injected over antigen surface
# Experimental: (§1) B) Molecular selectivity over mouse IL-36R and human IL-1R1 The mouse and chimeric anti-IL-36R antibodies were also injected over either a mouse IL-36R or a human IL-1R1 surface at a concentration of 100 nM. The binding signal to mouse IL-36R and to human IL-1R1 for these antibodies measured using the Fortebio Octet (Fortebio, Menlo Park, Calif.) is zero, which indicates these antibodies selectively bind to human IL-36R.
row,binding result,Binder
1,no binding (tested: 100 nM),B1
2,no binding (tested: 100 nM),B2
3,no binding (tested: 100 nM),B3

# Molecular target: T4, human IL-1R1
# Experiment: as above
# Experimental: as §1
row,binding result,Binder
1,no binding (tested: 100 nM),B1
2,no binding (tested: 100 nM),B2
3,no binding (tested: 100 nM),B3

# Molecular target: T1, human IL-36R on cells
# Experiment: flow cytometry, HEK293 cells transfected with full-length human IL-36R
# Experimental: HEK293 cells transfected with full-length human IL-36R or NCI/ADR-RES cells were passaged for 24 hours prior to staining. Cells were removed from flasks by rinsing with 10 ml of 5 mM EDTA in PBS, and then incubated at 37° C. for 10 min with an additional 10 ml of 5 mM EDTA and 2.5 ml of Accumax to declump/disperse cells. Antibodies were then diluted to specified concentrations in PBS+2% BSA, and cells incubated for 20 min at room temperature. Excess antibody was then washed by adding 200 μl of PBS and then centrifuged. Secondary reagent was then added at 50 μl per well and cells are incubated for 15 min at room temperature and then washed as above. Cells were resuspended in 200 μl PBS and analyzed by flow cytometry.
row,EC50,Binder
1,0.746 nM,B1
2,0.529 nM,B2
3,0.302 nM,B3

# Molecular target: T2, recombinant human IL-36R (ECD)
# Experiment: SPR (ProteOn), recombinant human IL-36R at 7 surface densities, global fit
# Experimental: A) Kinetics and binding affinities of anti-IL-36R antibodies binding to recombinant human IL-36R were measured using the Proteon (Bio-Rad, Hercules, Calif.) using material generated from hybridoma following single column purification. […] The binding affinities of the mouse antibodies to human IL-36R run at 7 different surface densities (globally fit) is shown in Table 1. Binding of the chimeric anti-IL36R IgGs is equivalent to the respective mouse leads.
row,Kd,Binder
1,0.025 nM,B1
2,0.063 nM,B2
3,0.024 nM,B3
